In assay [1] the target is T1, GST-hRARα(DEF) (pGEX2T-hRARα(DEF), amino acids 153-462) (human, UniProt P10276 153-462).
T1 construct: range 153-462; Bacterially produced; also called GST-RAR; GST-RARα(DEF); not shown: glutathione-S-transferase (GST) of pGEX2T (Pharmacia)
T1 sequence (looked up): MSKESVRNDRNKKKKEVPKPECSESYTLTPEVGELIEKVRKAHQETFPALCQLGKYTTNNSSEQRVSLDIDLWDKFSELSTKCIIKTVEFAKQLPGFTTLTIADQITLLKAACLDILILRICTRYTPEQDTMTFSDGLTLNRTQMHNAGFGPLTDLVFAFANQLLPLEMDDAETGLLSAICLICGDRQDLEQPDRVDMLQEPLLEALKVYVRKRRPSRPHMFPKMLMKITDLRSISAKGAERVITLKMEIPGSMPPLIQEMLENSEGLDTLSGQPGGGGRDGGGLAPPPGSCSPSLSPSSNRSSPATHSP
Briefly: GST pull-down with 35S in-vitro-translated TIF2 polypeptides, with or without 10^-6 M all-trans-retinoic acid.

The subject of another assay is ER, RARα and RXRα LBDs. In words: GST pull-down of TIF2 polypeptides with NR LBDs. It is filed as binding. The following applies: in vitro, with or without 10^−6 M ligand. Summed up:
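In vitro GST-fusion pull-downs tested TIF2 deletion or point-mutant polypeptides against ER or RARα LBDs. Point-mutant binding was quantified relative to a TIF2.1 wildtype standard. Values are means of at least three experiments with SD.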

The subject of a further assay is GAL-CBP. In words: two hybrid analysis of CBP-TIF2 interaction in HeLa cells. It is filed as cell-based. The procedure: (e) Two hybrid analysis of the CBP-TIF2 interaction in mammalian cells in vivo. HeLa cells were transfected with 0.2 μg of the GAL4 or GALA-CBP (expressing CBP residues 1872 to 2165) expression vectors together with 0.2 μg of the VP16 or VPI6-TF2 expression vectors in the presence of 2 μg of (17m)5-TATA-CAT reporter plasmid. Fold induction relative to the GAL-CBP activity is indicated. The mean of three experiments is shown; in each case, values varied by less than ±20%.
HeLa cells were transfected with 0.2 μg of GAL4 or GAL-CBP expression vectors together with 0.2 μg of VP16 or VP16-TIF2.13 expression vectors in the presence of 1 μg of (17m)5-TATA-CAT reporter plasmid. Data are represented as fold induction of the activity seen with GAL-CBP alone. The mean and standard, deviation obtained from ten experiments are shown. The expression levels were confirmed by Western blotting with antibodies directed against GAL4 DBD and VP16 AAD (data not shown).
Furthermore, it was reported that SRC-1, which belongs to the same gene family as TIF2, interacts with CBP and p300 (Kamei, Y. et al., Cell 85:403-414 (1996); Yao, T. P. et al., Proc. Natl. Acad. Sci. USA 93:10626-10631 (1996); Hanstein, B., et al., Proc. Natl. Acad Sci USA 93:11540-11545 (1996)). Using GST-fusion protein-based interaction and animal cell-based two hybrid assays, we therefore analyzed whether TIF2 could also interact with CBP. […] A GST-CBP fusion protein was expressed in E. coli and used for puU-down assays with in vitro translated TIF2 polypeptides (FIG. 7d).

Data on one molecule can be found in patent US6861508B2, “Transcriptional intermediary factor-2” (Institut National de la Sante et de la Recherche Medicale, priority 1996, dated 2005).

B1: TIF2.2 (TIF2 amino acids 1288-1464) (other)
chain: NPRIPQANAQQFPFPPNYGISQQPDPGFTGATTPQSPLMSPRMAHTQSPMMQQSQANPAYQAPSDINGWAQGNMGGNSMFSQQSPPHFGQQANTSMYSNNMNINVSMATNTGGMSSMNQMTGQISMTSVTSVSTSGLSSMGPEQVNDPALRGGNLFPNQLPGMDMIKQEGDTTRKYC
notes: In-vitro-translated; also called AD2
B1: the binding result in assay [1] is “no binding”. In the assay with ER, RARα and RXRα LBDs, the “binding to NRs (ER, RARα LBDs)” value was “cannot bind NRs”. In addition, in the assay with GAL-CBP, the “interaction with GAL-CBP, two hybrid” value was “not”.
